This is an account of results in paper PMC11676285, “Enhancement of the Thermostability of Microbacterium Esterase by Combinatorial Rational Design” (Molecules, 2024).

First the molecules themselves.
B1: EstSIT01 (Microbacterium aurantiacum) (protein)
chain: MTLFDGITSRIVDTDRLTVNILERAADDPQTPPDRTVVFVHGNVSSALFWQEIMQDLPSDLRAIAVDLRGFGGSEHAPVDATRGVRDFSDDLHATLEALDIPVAHLVGWSMGGGVVMQYALDHPVLSLTLQSPVSPYGFGGTRRDGSRLTDDDAGCGGGGANPDFIQRLIDHDTSDDAQTSPRSVFRAGYVASDYTTDHEDVWVESMLTTSTADGNYPGDAVPSDNWPGFAAGRHGVLNTMAPQYFDVSGIVDLAEKPPILWIHGTADAIVSDASFYDLNYLGQLGIVPGWPGEDVAPAQEMVSQTRDVLGRYAAGGGTVTEVAVEGAGHSAHLERPAVFRHALLEIIGYVGAAADPAPPTEAIIIRSAD
B2: EstSIT01 (Microbacterium aurantiacum; E301P) (protein)
chain: MTLFDGITSRIVDTDRLTVNILERAADDPQTPPDRTVVFVHGNVSSALFWQEIMQDLPSDLRAIAVDLRGFGGSEHAPVDATRGVRDFSDDLHATLEALDIPVAHLVGWSMGGGVVMQYALDHPVLSLTLQSPVSPYGFGGTRRDGSRLTDDDAGCGGGGANPDFIQRLIDHDTSDDAQTSPRSVFRAGYVASDYTTDHEDVWVESMLTTSTADGNYPGDAVPSDNWPGFAAGRHGVLNTMAPQYFDVSGIVDLAEKPPILWIHGTADAIVSDASFYDLNYLGQLGIVPGWPGEDVAPAQPMVSQTRDVLGRYAAGGGTVTEVAVEGAGHSAHLERPAVFRHALLEIIGYVGAAADPAPPTEAIIIRSAD
B3: EstSIT01 (Microbacterium aurantiacum; E301P/G215A/G293A) (protein)
chain: MTLFDGITSRIVDTDRLTVNILERAADDPQTPPDRTVVFVHGNVSSALFWQEIMQDLPSDLRAIAVDLRGFGGSEHAPVDATRGVRDFSDDLHATLEALDIPVAHLVGWSMGGGVVMQYALDHPVLSLTLQSPVSPYGFGGTRRDGSRLTDDDAGCGGGGANPDFIQRLIDHDTSDDAQTSPRSVFRAGYVASDYTTDHEDVWVESMLTTSTADANYPGDAVPSDNWPGFAAGRHGVLNTMAPQYFDVSGIVDLAEKPPILWIHGTADAIVSDASFYDLNYLGQLGIVPGWPAEDVAPAQPMVSQTRDVLGRYAAGGGTVTEVAVEGAGHSAHLERPAVFRHALLEIIGYVGAAADPAPPTEAIIIRSAD
B4: EstSIT01 (Microbacterium aurantiacum; E301P/G215A) (protein)
chain: MTLFDGITSRIVDTDRLTVNILERAADDPQTPPDRTVVFVHGNVSSALFWQEIMQDLPSDLRAIAVDLRGFGGSEHAPVDATRGVRDFSDDLHATLEALDIPVAHLVGWSMGGGVVMQYALDHPVLSLTLQSPVSPYGFGGTRRDGSRLTDDDAGCGGGGANPDFIQRLIDHDTSDDAQTSPRSVFRAGYVASDYTTDHEDVWVESMLTTSTADANYPGDAVPSDNWPGFAAGRHGVLNTMAPQYFDVSGIVDLAEKPPILWIHGTADAIVSDASFYDLNYLGQLGIVPGWPGEDVAPAQPMVSQTRDVLGRYAAGGGTVTEVAVEGAGHSAHLERPAVFRHALLEIIGYVGAAADPAPPTEAIIIRSAD

Substrate in this data set: COC(=O)[C@@H]1[C@H](C(=O)OC)N(Cc2ccccc2)C(=O)N1Cc1ccccc1
In words: HPLC of biotin monomethyl ester, Michaelis-Menten fit. The data set is classed as biochemical, Microbacterium aurantiacum. The note with it: pH 8.0, 0.05 M PBS, 30 °C, substrate 0.1 to 10 mM. The source says: HPLC of biotin monomethyl ester, Michaelis-Menten fit on […]01
Consider B1, for which the Km (as a rule, the substrate concentration at which the rate is half of its maximum) came to 150 ± 20 µM; the kcat (as a rule, the maximal rate divided by the concentration of active sites) was 7.8 ± 0.31 s⁻¹; the kcat/Km (in general, the second-order rate constant that governs catalysis at low substrate concentration) is 51900 M⁻¹ s⁻¹.
On the same counts, the results for B2 are 220 ± 30 µM, 5.1 ± 0.28 s⁻¹ and 23200 M⁻¹ s⁻¹.
Consider B3, for which the Km was determined as 180 ± 30 µM, the kcat came to 6.3 ± 0.39 s⁻¹ and the kcat/Km turned out to be 34900 M⁻¹ s⁻¹.
With B4, the Km is 210 ± 40 µM, the kcat turned out to be 5.4 ± 0.37 s⁻¹ and the kcat/Km was 25600 M⁻¹ s⁻¹.
